Experimental data as given in US20210292392A1 (TSB THERAPEUTICS BEIJING, published 2021).
Where two headings read alike, the source gives them in different places.

Tests used:
Assay in all cases: cell-based or functional assay
[1] = biological target: T1, full length spike (S) protein of SARS-CoV-2 (SARS-CoV-2, UniProt P0DTC2 14-1273)
[2] = biological target: T1, full length spike (S) protein of …; remark: listed apart in the source
[3] = biological target: spike protein on live SARS-CoV-2 (SARS-CoV-2, UniProt P0DTC2 14-1273)
[4] = biological target: full length spike (S) protein of SARS-CoV-2 on pseudovirus (SARS-CoV-2, UniProt P0DTC2 14-1273)
[5] = biological target: spike (S) protein of live SARS-CoV-2 (SARS-CoV-2, UniProt P0DTC2 14-1273)

B1: P2B-1D9 (antibody, human IgG1, lambda, V domains shown)
VH: QITLKESGPTLVKPTQTLTLTCTFSGFSLSTSGVGVGWIRQPPGKALEWLALIYWDDDKYYSPSLKSRLTITKDTSKNQVVLTMTNMDPVDTATYYCAHTRILYYGSGSYYDYWGQGTLVTVSS
VL: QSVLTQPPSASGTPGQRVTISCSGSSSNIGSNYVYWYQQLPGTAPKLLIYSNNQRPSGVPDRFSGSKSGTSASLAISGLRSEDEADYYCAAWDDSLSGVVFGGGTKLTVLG
In the case of B1, the “IC50, pseudovirus neutralization” value [1] is reported as 3.12 µg/mL.

B2: P2B-1E4 (antibody, human IgG1, lambda, V domains shown)
VH: QITLKESGPTLVKPTQTLTLTCTFSGFSLSTSGVGVGWIRQPPGKALEWLALIYWDDDKRYSPSLKSRLTITKDTSKNQVVLTMTNMDPVDTATYYCAHQIVATIIDYWGQGTLVTVSS
VL: QSALTQPASVSGSPGQSITISCTGTSSDVGGYNYVSWYQQHPGKAPKLMIYDVSKRPSGVSNRFSGSKSGNTASLTISGLQAEDEADYYCSSYTSSSVVFGGGTKLTVLG
With B2 the “IC50, pseudovirus neutralization” value [1] was 5.96 µg/mL.

B3: P2A-1A8 (antibody, V domains shown)
VH: EVQLVESGGDLVQPGRSLRLSCAASGFAFDDYAMHWVRQAPGKGLEWVSGSTWNSGTIAYADSVKGRFTISRDNAKKSLYLQMNSLRTEDTALYYCAKLGGYSDYDYPRPGDHYYGLDVWGQGTTVTVSS
VL: QSALTQPASVSGSPGQSITISCTGTSSDVGSYNLVSWYQQHPGKVPKLLIYDVNKRPSGISNRFSGSKSGNTASLTISGLQAEDEADYYCRSYTDSNTYVFGTGTKVTVLG
For B3, the “IC50, pseudovirus neutralization” value [2] was 7.68 µg/mL, the “Neutralizing activity (%) Mean at 0.0228624 µg/ml” value [2] was 4.34% and the “Neutralizing activity (%) Mean at 0.0685871 µg/ml” value [2] was 13.2%. The “Neutralizing activity (%) Mean at 0.2057613 µg/ml” value [2] was 14.1%, the “Neutralizing activity (%) Mean at 0.6172839 µg/ml” value [2] was 16.5% and the “Neutralizing activity (%) Mean at 1.851852 µg/ml” value [2] was 26.7%. The “Neutralizing activity (%) Mean at 5.555555 µg/ml” value [2] was 44.8%, the “Neutralizing activity (%) Mean at 16.66667 µg/ml” value [2] was 67.8% and the “Neutralizing activity (%) Mean at 50 µg/ml” value [2] was 88.2%. The “IC50, live SARS-CoV-2 focus reduction neutralization test (FRNT)” value [3] was 35.9 µg/mL.

B4: P2B-2F6 (antibody, V domains shown)
VH: QVQLQESGPGLVKPSETLSLTCTVSGYSISSGYYWGWIRQPPGKGLEWIGSIYHSGSTYYNPSLKTRVTISVDTSKNQFSLKLSSVTAADTAVYYCARAVVGIVVVPAAGRRAFDIWGQGTMVTVSS
VL: QSALTQPPSASGSPGQSVTISCTGTSSDVGGYNYVSWYQQHPGKAPKLMIYEVSKRPSGVPDRFSGSKSGNTASLTVSGLQAEDEADYYCSSYAGSNNLVFGGGTKLTVLG
B4 was tested, and the “IC50, pseudovirus neutralization” value [2] was 0.05 µg/mL, the “Neutralizing activity (%) Mean at 0.0228624 µg/ml” value [2] was 39.4% and the “Neutralizing activity (%) Mean at 0.0685871 µg/ml” value [2] was 51.8%. The “Neutralizing activity (%) Mean at 0.2057613 µg/ml” value [2] was 67.1%, the “Neutralizing activity (%) Mean at 0.6172839 µg/ml” value [2] was 81.4% and the “Neutralizing activity (%) Mean at 1.851852 µg/ml” value [2] was 89%. For the same binder, the “Neutralizing activity (%) Mean at 5.555555 µg/ml” value [2] was 93.5%, the “Neutralizing activity (%) Mean at 16.66667 µg/ml” value [2] was 95.4% and the “Neutralizing activity (%) Mean at 50 µg/ml” value [2] was 97.4%. For the same binder, the “IC50, live SARS-CoV-2 focus reduction neutralization test (FRNT)” value [3] was 0.41 µg/mL.

B5: P2B-2F6 (antibody, V domains shown)
VH: B4 VH
VL: B4 VL
In the case of B5, the “Pseudovirus IC50” value [4] is reported as 0.05 µg/mL, the “Pseudovirus IC80” value [4] is reported as 0.607 µg/mL and the “Live virus IC50” value [5] is reported as 0.407 µg/mL. For the same binder, the “Live virus IC80” value [5] was 2.43 µg/mL.

B6: P2B-1A10 (antibody, human IgG1, kappa, V domains shown)
VH: EVQLVESGGGLIQPGGSLRLSCAASGFTVSSNYMSWVRQAPGKGLEWVSVIYSGGSTYYADSVKGRFTISRDNSKNTLYLQMNSLRAEDTAVYYCAREGPKSITGTAFDIWGQGTIVTVSS
VL: DIQMTQSPSSLSASVGDRVTITCQASQDISNYFNWYQQKPGKAPKLLIYDASNLETGVPSRFSGSGSGTDFTFTISSLQPEDIATYYCQQYDNLPMYTFGQGTKLEIKR
B6 was tested, and the “IC50, pseudovirus neutralization” value [1] was 0.349 µg/mL.

B7: P2A-1B3 (antibody, V domains shown)
VH: EVQLVESGGGLVQPGGSLRLSCVASGFSFNRYSMNWLRQTPRKGLEWLSYISASGNTIYYADSVRGRFTTSRDNAKNTLYLQMNSLRDDDTAVYFCARPAMVREGTYNWFDPWGQGTLVTVSS
VL: EIVLTQSPGTLSLSPGERATLSCRASQSVSNDYLAWYQQKPGQAPRLLIYYASSRATGIPDRFSGSGSGTDFTLTISRLEPGDSAVYYCQQYGDSPPITFGQGTRLEIKR
In the case of B7, the “Pseudovirus IC50” value [4] is reported as 16.8 µg/mL and the “Pseudovirus IC80” value [4] is reported as > 50 µg/mL.
